Residue numbers refer to the chain shown, from its start. Names may count otherwise. “And” between values parts separate entries of the source, which are not always exact repeats. Identical values can stand only once.
T1: PF4/heparin complex (human PF4 complexed with heparin) (human, UniProt P02776 32-101)
T1 construct: Multimeric complex of PF4 with heparin (not a protein); In the EIAs: PF4 captured on biotinylated heparin on streptavidin plates; In the SRA: platelets with 0.2 U/mL heparin; also called PF4 and heparin complexes
T1 sequence: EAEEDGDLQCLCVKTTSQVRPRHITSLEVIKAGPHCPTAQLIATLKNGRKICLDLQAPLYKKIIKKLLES

B1: Wildtype scFv (KKO-derived single chain variable fragment) (scFv)
scFv: DIQMIQSQKFMSTSVGDRVTVTCKASQNVGTNVAWYQQKPGQSPNALIYSASYRYSGVPDRFTGSGSGTDFTLTITNVQSEDLADYFCQQYNSYPLTFGTGTKLDLKGGGGSGGGGSGGGGSVQLQQSGAELVKPGASVKLSCKASGYTFTNYFIYWVKQRPGQGLEWIGEINPRNGDTDFNEKFESRATLTVDKSSSTAYMQLSSLTSEDSAIYYCTRSPYGNNYGFTYWGQGTLVTVSA
notes: VL-(G4S)3 linker-VH; expressed in E. coli BL21 from pADL-22c, purified on Ni-NTA as histidine-tagged scFv, about 28 kDa; also called WT; KKO-scFv; not shown: histidine tag from the pADL-22c vector
B2: Mutant B scFv, scFv(R18K, N152K, D180N) (scFv)
scFv: B1 scFv with R18K, N152K, D180N
notes: VL-linker-VH; histidine-tagged, from E. coli BL21; also called Mut B; not shown: histidine tag from the pADL-22c vector
B3: Mutant D scFv, scFv(Y156H) (scFv)
scFv: B1 scFv with Y156H
notes: VL-linker-VH; histidine-tagged, from E. coli BL21; also called Mut D; not shown: histidine tag from the pADL-22c vector
B4: Mutant E scFv, scFv(Y156H, D180G, Q233P) (scFv)
scFv: B1 scFv with Y156H, R175K, D180G, Q233P
notes: VL-linker-VH; histidine-tagged, from E. coli BL21; also called Mut E; not shown: histidine tag from the pADL-22c vector
B5: Mutant F scFv, scFv(E183V, E186K, G223R) (scFv)
scFv: B1 scFv with E183V, E186K, G223R
notes: VL-linker-VH; histidine-tagged, from E. coli BL21; also called Mut F; not shown: histidine tag from the pADL-22c vector

These binders were tested against T1, PF4/heparin complex (human PF4 …) (assay: competition EIA, scFv 50 µg/mL; competitor HIT-positive sera antibodies, n=10).

Binder	mean % inhibition of serum antibody binding
B1	44.7%
B2	77.8%
B3	78.3%
B4	76.5%
B5	80%

Molecular target: T1, PF4/heparin complex (human PF4 …)
Experiment: as above
Remark: another data set of the same source
Experimental: (§1) Inhibitory PF4/heparin IgG-specific Streptavidin Enzyme Immunoassay (EIA). The binding activity of wildtype and mutant scFv antibodies to PF4/heparin complexes was measured using an inhibitory PF4/heparin IgG-specific EIA with a streptavidin-biotin capture system. Before performing this protocol, 96-well NUNC Maxisorp plates (ThermoFisher) were coated with 10 μg/mL streptavidin for 24 h. Plates were then blocked with 3% bovine serum albumin (BSA) in phosphate buffered saline (PBS) for 2 h at room temperature. Plates were then coated with 1 U/mL biotinylated-heparin for 1 h followed by 30 μg/mL PF4 for 1 h. Increasing concentrations of wildtype or mutant scFv were added and incubated for 1 hr at room temperature. Without removing wildtype or scFv, HIT patient sera in a 1:50 dilution or full-length KKO (2 μg/mL) was then incubated for 1 h at room temperature. After washing, alkaline phosphatase-conjugated anti-human or anti-mouse IgG (Jackson Immuno Research Laboratories, Inc., West Grove, PA) was added at a 1:4000 dilution and incubated for 1 h temperature. For detection, 1 mg/mL p-nitrophenylphosphate (PNPP, Sigma-Aldrich) substrate dissolved in 1 mol/L diethanolamine (DEA) buffer (pH 9.6) was added. The optical density (OD) was measured at 2 min intervals for 30 min at 405 nm (OD₄₀₅ₙₘ) using a BioTek 800 TS plate reader (BioTek Instruments Inc., Winooski, VT) to determine if anti-PF4/heparin antibody binding was inhibited. Results were reported as a decrease in OD (absorbance at 405 nm) from baseline levels.
Inhibiting HIT-Positive (EIA+/SRA+) HIT-Negative (EIA+/SRA−) antibody binding: Sera (n=10) from confirmed HIT-positive patients (EIA-positive/SRA-positive) containing anti-PF4/heparin antibodies were used in a modified streptavidin-biotin based anti-PF4/heparin IgG EIA (streptavidin anti-PF4/hep EIA) with scFv at 50 μg/mL. On average, antibody binding to PF4/heparin was reduced in the presence of scFv.

Binder	mean OD405nm of bound serum IgG (+ scFv)
B1	0.931 OD405nm
B2	0.275 OD405nm
B3	0.283 OD405nm
B4	0.319 OD405nm
B5	0.281 OD405nm

Each binder was assayed against T1, PF4/heparin complex (human PF4 …) (assay: BLI (Octet), biotinylated PF4/heparin on streptavidin sensors, scFv 1 µg/mL).
Experimental: (§2) The Octet-QK Red 96 (FortéBio, Menlo Park, CA) instrumentation was used to conduct all BLI experiments. A 96-well microtiter plate (black, flat-bottom) was used to hold 200 μL per well of either sample or buffer. Pre-coated streptavidin biosensor tips (FortéBio) were hydrated in phosphate buffered saline (PBS) containing 1% bovine serum albumin (BSA, Sigma-Aldrich) before performing all kinetic assays. Each step was performed at an operating temperature of 23° C. with agitation at 1000 rpm. Streptavidin tips were first equilibrated in PBS+1% BSA to establish a baseline. […] The PF4-coated tips were then dipped into PBS+1% BSA for 13 minutes to re-establish a baseline. Tips were then incubated in an analyte solution containing half-fold dilutions of wildtype scFv (4.0, 2.0, 1.0, 0.5, 0.25 μg/mL in PBS+1% BSA) for 10 minutes to measure association. For mutant scFv association, tips were incubated in an analyte solution containing 200 μL of each mutant and wildtype scFv at a final concentration of 1 μg/mL in PBS+1% BSA. Antibody dissociation steps were performed by dipping sensors in wells containing PBS+1% BSA for 56 minutes. The following negative controls included in these kinetic experiments were also measured: 200 μL of buffer to replace both the antigen and scFv and 200 μL buffer replacing scFv only. Each experiment was performed with PF4 or with PF4/heparin as the immobilized antigen.
BLI experiments were performed to evaluate binding responses and affinities of wildtype and mutant scFv. Biotinylated PF4 alone or complexed with heparin was immobilized on streptavidin biosensors and used to capture wildtype scFv. Half-fold serial dilutions of wildtype scFv ranging from 0.25 μg/mL to 4 μg/mL were used to determine the optimal concentrations for future experiments PF4 (PF4 FIG. 3; PF4/heparin FIG. 4).

Binder	average binding response (wavelength shift)	fold increase of binding response against wildtype scFv	fold higher binding response than wildtype scFv
B1	0.0758 nm	–	–
B2	0.379 nm	4 fold	–
B3	0.133 nm	–	≥ 3 fold
B4	0.0907 nm	–	–
B5	0.285 nm	5 fold	–

Each binder was assayed against T1, PF4/heparin complex (human PF4 …) (assay: competition EIA on PF4/biotinylated heparin, scFv 0-160 µg/mL; competitor full-length KKO 2 µg/mL).
Experimental: as §1
To further evaluate the binding of mutant and wildtype scFv, their ability to inhibit full-length KKO from binding PF4/heparin complexes was assessed in a modified streptavidin-capture EIA. Biotinylated heparin was immobilized with PF4 on streptavidin-coated plates and incubated with KKO in the presence of scFv at half-fold serial dilutions from 0 to 160 μg/mL. […] Wildtype scFv and mutant C were unable to inhibit full-length KKO binding at these concentrations and IC50 values for these constructs were not calculated.

Binder	IC50
B2	57.3 nM and 1.6 µg/mL
B3	111 nM and 3.1 µg/mL
B4	293 nM and 8.2 µg/mL
B5	1.3 µg/mL

These binders were tested against T1, PF4/heparin complex (human PF4 …) (assay: BLI (Octet), biotinylated PF4/heparin on streptavidin sensors, scFv at 1 µg/mL, 1:1 model, mean ± s.d.).
Experimental: BLI experiments were performed using wildtype scFv, mutant B, mutant C, mutant D, mutant E, and mutant F at 1 μg/mL. Binding was measured against immobilized biotinylated PF4/heparin complexes on streptavidin biosensors. b) Table showing kinetic data of wildtype and mutant scFv, including binding responses and association and dissociation rates. All data was analyzed based on a 1:1 homogenous ligand binding model using Octet®) User Software version 3.1.
as §2
BLI experiments were performed to evaluate binding responses and affinities of wildtype and mutant scFv. Biotinylated PF4 alone or complexed with heparin was immobilized on streptavidin biosensors and used to capture wildtype scFv.

Binder	koff	kon
B1	0.000519 s⁻¹	96700 M⁻¹ s⁻¹
B2	3.91e-05 s⁻¹	27600 M⁻¹ s⁻¹
B3	3.47e-05 s⁻¹	12900 M⁻¹ s⁻¹
B4	2.78e-05 s⁻¹	79200 M⁻¹ s⁻¹
B5	1.41e-05 s⁻¹	50900 M⁻¹ s⁻¹

The binders below were run against T1, PF4/heparin complex (human PF4 …) (assay: cell-based or functional assay).

Binder	% inhibition of 14C-serotonin release (SRA), HIT-Positive Patient #1 serum, scFv 50 µg/mL	% inhibition of 14C-serotonin release (SRA), HIT-Positive Patient #1 serum, scFv 75 µg/mL	% inhibition of 14C-serotonin release (SRA), HIT-Positive Patient #2 serum, scFv 50 µg/mL	% inhibition of 14C-serotonin release (SRA), HIT-Positive Patient #2 serum, scFv 75 µg/mL	% inhibition of 14C-serotonin release (SRA), HIT-Positive Patient #3 serum, scFv 50 µg/mL	% inhibition of 14C-serotonin release (SRA), HIT-Positive Patient #3 serum, scFv 75 µg/mL	% inhibition of 14C-serotonin release (SRA), HIT-Positive Patient #4 serum, scFv 50 µg/mL	% inhibition of 14C-serotonin release (SRA), HIT-Positive Patient #4 serum, scFv 75 µg/mL	% inhibition of 14C-serotonin release (SRA), HIT-Positive Patient #5 serum, scFv 50 µg/mL	% inhibition of 14C-serotonin release (SRA), HIT-Positive Patient #5 serum, scFv 75 µg/mL
B1	15.6%	17.8%	37.2%	15.4%	4.8%	12%	6.7%	4.4%	-6.9%	20.8%
B2	71.1%	97.8%	71.8%	19.2%	6%	14.5%	7.8%	58.9%	90.3%	80.6%
B3	42.2%	94.4%	12.8%	16.7%	10.8%	36.1%	20%	38.9%	69.4%	87.5%
B4	14.4%	25.6%	9%	10.3%	14.5%	9.6%	6.7%	4.4%	47.2%	59.7%
B5	97.8%	–	21.8%	–	50.6%	–	50%	–	90.3%	–
